Data published in article PMC6461802, “Coupling of ssRNA cleavage with DNase activity in type III-A CRISPR-Csm revealed by cryo-EM and biochemistry” (Cell Research, 2019).
“And” between values parts separate entries of the source, which are not always exact repeats. Equal values may be shown once.

T1: Cas10 (Csm1);Csm2;Csm3;Csm4 (Streptococcus thermophilus …, UniProt A0A0A7HFE1;A0A0A7HIX1;A0A0A7HIF0;A0A0A7HGA1 1-758;1-121;1-220;1-299, |||)
T1 sequence 1: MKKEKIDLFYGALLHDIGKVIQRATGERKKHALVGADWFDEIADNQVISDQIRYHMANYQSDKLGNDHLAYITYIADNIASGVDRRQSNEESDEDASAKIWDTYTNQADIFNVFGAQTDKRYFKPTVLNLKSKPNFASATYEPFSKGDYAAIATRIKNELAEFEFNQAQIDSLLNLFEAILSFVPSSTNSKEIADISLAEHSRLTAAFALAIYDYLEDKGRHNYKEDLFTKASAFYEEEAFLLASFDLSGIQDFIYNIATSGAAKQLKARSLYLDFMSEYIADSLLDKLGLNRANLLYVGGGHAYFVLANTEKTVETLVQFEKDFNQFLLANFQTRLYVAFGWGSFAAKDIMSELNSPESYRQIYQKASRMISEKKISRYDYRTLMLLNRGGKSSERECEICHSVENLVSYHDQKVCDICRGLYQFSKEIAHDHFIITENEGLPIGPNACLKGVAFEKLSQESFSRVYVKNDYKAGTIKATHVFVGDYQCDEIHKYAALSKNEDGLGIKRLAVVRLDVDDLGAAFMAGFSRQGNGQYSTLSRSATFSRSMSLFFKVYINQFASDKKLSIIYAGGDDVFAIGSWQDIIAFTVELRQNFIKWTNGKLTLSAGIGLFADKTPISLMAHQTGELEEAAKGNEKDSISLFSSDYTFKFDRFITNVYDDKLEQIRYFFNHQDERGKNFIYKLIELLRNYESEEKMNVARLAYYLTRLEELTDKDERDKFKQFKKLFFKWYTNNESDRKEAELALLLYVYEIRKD
T1 sequence 2: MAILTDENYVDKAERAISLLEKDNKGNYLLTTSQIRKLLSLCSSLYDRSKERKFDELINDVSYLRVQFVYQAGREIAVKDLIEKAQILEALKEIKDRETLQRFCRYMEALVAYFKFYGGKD
T1 sequence 3: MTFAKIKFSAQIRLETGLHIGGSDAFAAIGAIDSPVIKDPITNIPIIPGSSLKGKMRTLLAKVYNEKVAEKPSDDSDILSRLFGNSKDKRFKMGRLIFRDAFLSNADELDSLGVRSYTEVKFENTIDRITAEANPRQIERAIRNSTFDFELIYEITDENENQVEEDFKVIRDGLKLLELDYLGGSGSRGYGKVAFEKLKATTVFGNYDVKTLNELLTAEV
T1 sequence 4: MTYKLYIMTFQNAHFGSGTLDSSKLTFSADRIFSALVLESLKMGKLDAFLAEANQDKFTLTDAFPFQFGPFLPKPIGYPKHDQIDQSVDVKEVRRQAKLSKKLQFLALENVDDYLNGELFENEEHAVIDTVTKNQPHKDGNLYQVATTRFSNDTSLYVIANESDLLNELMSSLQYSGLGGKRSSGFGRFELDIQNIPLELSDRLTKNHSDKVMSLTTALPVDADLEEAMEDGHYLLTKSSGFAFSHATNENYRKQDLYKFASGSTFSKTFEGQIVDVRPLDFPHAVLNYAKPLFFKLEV


How the values were obtained:
[1] = molecular target: T1, Cas10 (Csm1);Csm2;Csm3;Csm4; experiment: cryo-EM; small conformation, 3.3 A; endogenous ATP in Cas10; Cryo-EM: complex ~0.4 mg/mL, purified in 10 mM Tris-HCl pH 8.0, 150 mM NaCl, 3 mM DTT; grids blotted at 4 C; ternary reconstitution conditions not given; details: protein: recombinant;recombinant;recombinant;recombinant; tags: ;His (N-terminal, pET-28a);;; copies: 1;3;5;1; single strand, 1 copy
[2] = molecular target: the molecule itself; experiment: cryo-EM structure; apo state: StCsm complex with 40 nt crRNA, wild-type Csm3; big (3.4 Å) and small (3.3 Å) particle populations; ~0.4 mg/mL, buffer 10 mM Tris-HCl pH 8.0, 150 mM NaCl, 3 mM DTT
[3] = molecular target: the molecule itself; experiment: cryo-EM structure; target ssRNA-bound state: StCsm complex with 40 nt crRNA and 49 nt target ssRNA, Csm3 D33A; big (3.4 Å) and small (3.5 Å) particle populations; ~0.4 mg/mL, buffer 10 mM Tris-HCl pH 8.0, 150 mM NaCl, 3 mM DTT

Binder	stoichiometry N [2]	further results
ACGGAAACUUUCGUAACUGUUUAAUUCUGUUCACUUAUUC (ssRNA) [40 nt crRNA]		binding result [1]: binds
Csm2 of the Streptococcus thermophilus type III-A Csm complex (natural protein, Streptococcus thermophilus DGCC8004, Csm2, Streptococcus thermophilus DGCC8004; csm2 is present both on the untagged gene cassette and on the His-tag plasmid, so the 3 or 5 copies in the complex may be a mix of tagged and untagged chains; No tag removal is described; also called Csm2a; Csm2b) MAILTDENYVDKAERAISLLEKDNKGNYLLTTSQIRKLLSLCSSLYDRSKERKFDELINDVSYLRVQFVYQAGREIAVKDLIEKAQILEALKEIKDRETLQRFCRYMEALVAYFKFYGGKD	5 and 3	
Csm3 of the Streptococcus thermophilus type III-A Csm complex (wild type, apo state) (natural protein, Streptococcus thermophilus DGCC8004, Csm3, Streptococcus thermophilus DGCC8004; also called Csm3a) MTFAKIKFSAQIRLETGLHIGGSDAFAAIGAIDSPVIKDPITNIPIIPGSSLKGKMRTLLAKVYNEKVAEKPSDDSDILSRLFGNSKDKRFKMGRLIFRDAFLSNADELDSLGVRSYTEVKFENTIDRITAEANPRQIERAIRNSTFDFELIYEITDENENQVEEDFKVIRDGLKLLELDYLGGSGSRGYGKVAFEKLKATTVFGNYDVKTLNELLTAEV	7 and 5	
Csm3 D33A of the Streptococcus thermophilus type III-A Csm complex (target ssRNA-bound state) (natural protein, Streptococcus thermophilus DGCC8004, Csm3, Streptococcus thermophilus DGCC8004, with D33A to eliminate ssRNA cleavage) MTFAKIKFSAQIRLETGLHIGGSDAFAAIGAIASPVIKDPITNIPIIPGSSLKGKMRTLLAKVYNEKVAEKPSDDSDILSRLFGNSKDKRFKMGRLIFRDAFLSNADELDSLGVRSYTEVKFENTIDRITAEANPRQIERAIRNSTFDFELIYEITDENENQVEEDFKVIRDGLKLLELDYLGGSGSRGYGKVAFEKLKATTVFGNYDVKTLNELLTAEV		stoichiometry N [3]: 7 and 5
